The values that follow are results of earlier work, collected in article PMC7101271.

Bounds are passed on as bounds.

For the series, the target named is Rab7 (UniProt P51149).
Chain of UniProt P51149 (P51149 2-207): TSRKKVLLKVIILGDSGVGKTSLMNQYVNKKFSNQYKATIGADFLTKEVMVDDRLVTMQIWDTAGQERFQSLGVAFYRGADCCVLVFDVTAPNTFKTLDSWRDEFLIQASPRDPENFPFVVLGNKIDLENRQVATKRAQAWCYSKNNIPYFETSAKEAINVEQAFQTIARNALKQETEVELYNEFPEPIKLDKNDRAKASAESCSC

For GDI (from UniProt P21856), the Kd was above 50 µM.
